Assay results as given in paper PMC9604439, “Mutation Hotspot for Changing the Substrate Specificity of β-N-Acetylhexosaminidase: A Library of GlcNAcases” (International Journal of Molecular Sciences, 2022).

Substrate: CC(=O)N[C@H]1[C@H](Oc2ccc([N+](=O)[O-])cc2)O[C@H](CO)[C@@H](O)[C@@H]1O
Assay: discontinuous p-nitrophenolate release assay, non-linear regression
Format: biochemical, Talaromyces flavus
Details: McIlvaine buffer pH 5.0, 25 °C

| Protein | Km | kcat |
| --- | --- | --- |
| TfHex (β-N-acetylhexosaminidase from Talaromyces flavus) (Talaromyces flavus; E332A) (protein, secreted via alpha-factor, pPICZαA, Pichia pastoris KM71H, cation-exchange purified; tetramer of two catalytic subunits and two non-covalently linked propeptides) VAVNPLPAPRSITWGTSGPISVPHNVDVKLPKNAIINDAWERAWTSIKQLRWVPQATEAPISSYEPFPTVAPTSASTASSTPLPSSSAAAVAARSQKRGHQKGSHEKRGHSQSTLRTVTVTVSDLNADLQAEVDESYTLVLDSGSSTLAITANTTWGALHAFTTLQQLVIYQDNSLIIEQPVHIEDSPLYPWRGVMIDTGRNFITVPKIKEQIDGMALSKLNILHWHLDDSQSWPVHMDTYPQMTNDAYSPWQTYSHEDIKDIIEYARARAVRVVPEVDMPGHSAAGWQQVDPSIVACAHSWWSNDNWPYHTAVAPTPGQLDPLNNKTYGVVEKVYNELSGIFTDDFFHVGGDELQTGCYNFSTYVSDYLAADPSRTYNDVTQYWVDHAFPIFKKIQNRKLVIWEDLIINNPHAPNVSTENLLVQSWNNGLTNINNLTNLGYDVLVSSSDFMYLDCGYGGFVTNDPRYDVMVNPDAVDGLANFNWGGNGGSWCAPYKTWQRIYDYDFTTNLTDAQAAHVKGAVAPLWSEQVDDTVISGKMWPRAAALAELVWSGNKDPKTGDKRTTYMTQRILNFREYLVANGVQAAPLVPKYCLQHPHSCDLYYDQTAVV | 880 ± 70 µM | 30 ± 1 s⁻¹ |
| TfHex (β-N-acetylhexosaminidase from Talaromyces flavus) (Talaromyces flavus; E332G) (protein, secreted via alpha-factor, pPICZαA, Pichia pastoris KM71H, cation-exchange purified; tetramer of two catalytic subunits and two non-covalently linked propeptides) VAVNPLPAPRSITWGTSGPISVPHNVDVKLPKNAIINDAWERAWTSIKQLRWVPQATEAPISSYEPFPTVAPTSASTASSTPLPSSSAAAVAARSQKRGHQKGSHEKRGHSQSTLRTVTVTVSDLNADLQAEVDESYTLVLDSGSSTLAITANTTWGALHAFTTLQQLVIYQDNSLIIEQPVHIEDSPLYPWRGVMIDTGRNFITVPKIKEQIDGMALSKLNILHWHLDDSQSWPVHMDTYPQMTNDAYSPWQTYSHEDIKDIIEYARARAVRVVPEVDMPGHSAAGWQQVDPSIVACAHSWWSNDNWPYHTAVGPTPGQLDPLNNKTYGVVEKVYNELSGIFTDDFFHVGGDELQTGCYNFSTYVSDYLAADPSRTYNDVTQYWVDHAFPIFKKIQNRKLVIWEDLIINNPHAPNVSTENLLVQSWNNGLTNINNLTNLGYDVLVSSSDFMYLDCGYGGFVTNDPRYDVMVNPDAVDGLANFNWGGNGGSWCAPYKTWQRIYDYDFTTNLTDAQAAHVKGAVAPLWSEQVDDTVISGKMWPRAAALAELVWSGNKDPKTGDKRTTYMTQRILNFREYLVANGVQAAPLVPKYCLQHPHSCDLYYDQTAVV | 1800 ± 200 µM | 51 ± 2 s⁻¹ |
| TfHex (β-N-acetylhexosaminidase from Talaromyces flavus) (Talaromyces flavus; E332N) (protein, secreted via alpha-factor, pPICZαA, Pichia pastoris KM71H, cation-exchange purified; tetramer of two catalytic subunits and two non-covalently linked propeptides) VAVNPLPAPRSITWGTSGPISVPHNVDVKLPKNAIINDAWERAWTSIKQLRWVPQATEAPISSYEPFPTVAPTSASTASSTPLPSSSAAAVAARSQKRGHQKGSHEKRGHSQSTLRTVTVTVSDLNADLQAEVDESYTLVLDSGSSTLAITANTTWGALHAFTTLQQLVIYQDNSLIIEQPVHIEDSPLYPWRGVMIDTGRNFITVPKIKEQIDGMALSKLNILHWHLDDSQSWPVHMDTYPQMTNDAYSPWQTYSHEDIKDIIEYARARAVRVVPEVDMPGHSAAGWQQVDPSIVACAHSWWSNDNWPYHTAVNPTPGQLDPLNNKTYGVVEKVYNELSGIFTDDFFHVGGDELQTGCYNFSTYVSDYLAADPSRTYNDVTQYWVDHAFPIFKKIQNRKLVIWEDLIINNPHAPNVSTENLLVQSWNNGLTNINNLTNLGYDVLVSSSDFMYLDCGYGGFVTNDPRYDVMVNPDAVDGLANFNWGGNGGSWCAPYKTWQRIYDYDFTTNLTDAQAAHVKGAVAPLWSEQVDDTVISGKMWPRAAALAELVWSGNKDPKTGDKRTTYMTQRILNFREYLVANGVQAAPLVPKYCLQHPHSCDLYYDQTAVV | 1220 ± 70 µM | 22.5 ± 0.4 s⁻¹ |
| TfHex (β-N-acetylhexosaminidase from Talaromyces flavus) (Talaromyces flavus; E332T) (protein, secreted via alpha-factor, pPICZαA, Pichia pastoris KM71H, cation-exchange purified; tetramer of two catalytic subunits and two non-covalently linked propeptides) VAVNPLPAPRSITWGTSGPISVPHNVDVKLPKNAIINDAWERAWTSIKQLRWVPQATEAPISSYEPFPTVAPTSASTASSTPLPSSSAAAVAARSQKRGHQKGSHEKRGHSQSTLRTVTVTVSDLNADLQAEVDESYTLVLDSGSSTLAITANTTWGALHAFTTLQQLVIYQDNSLIIEQPVHIEDSPLYPWRGVMIDTGRNFITVPKIKEQIDGMALSKLNILHWHLDDSQSWPVHMDTYPQMTNDAYSPWQTYSHEDIKDIIEYARARAVRVVPEVDMPGHSAAGWQQVDPSIVACAHSWWSNDNWPYHTAVTPTPGQLDPLNNKTYGVVEKVYNELSGIFTDDFFHVGGDELQTGCYNFSTYVSDYLAADPSRTYNDVTQYWVDHAFPIFKKIQNRKLVIWEDLIINNPHAPNVSTENLLVQSWNNGLTNINNLTNLGYDVLVSSSDFMYLDCGYGGFVTNDPRYDVMVNPDAVDGLANFNWGGNGGSWCAPYKTWQRIYDYDFTTNLTDAQAAHVKGAVAPLWSEQVDDTVISGKMWPRAAALAELVWSGNKDPKTGDKRTTYMTQRILNFREYLVANGVQAAPLVPKYCLQHPHSCDLYYDQTAVV | 800 ± 100 µM | 13.3 ± 0.4 s⁻¹ |
